Laboratory results as given in the Immune Epitope Database (IEDB).
pKd: −log10 of the molar value.

Assays:
HLA-A*11:01 = assay: IEDB peptide-MHC binding, purified MHC/direct/fluorescence; filed as Kd, often an IC50 or EC50 that approximates it; ≥ and ≤ were set here for values at or beyond the usual limits of such assays; details: source organism: SARS-CoV1
HLA-A*03:01 = assay: as above; details: source organism: SARS-CoV1

Sequence	pKd (HLA-A*11:01)	pKd (HLA-A*03:01)
AITTSNCAK	7.27	6.19
ALRANSAVK	5.75	6.71
ASLPTTIAK	7.72	7.25
ATFSVPMEK	7.55	6.58
ATNNVFRLK	6.63	6.40
ATVVIGTSK	7.52	6.63
AVDPAKAYK	6.91	5.78
AVLQSGFRK	7.10	6.59
GTLSYDNLK	7.32	6.44
GVAMPNLYK	7.14	7.22
ITCVVIPSK	6.54	5.73
KCYGVSATK	5.08	5.68
KLFAAETLK	6.63	
KMQRMLLEK	6.47	6.52
KVIQPRVEK	6.77	6.23
LIGANYLGK	5.83	6.00
QLFKPLTKK	6.63	6.67
RLYYDSMSY	6.63	7.28
SSNVANYQK	7.64	6.35
SSSLTSLLK	7.29	6.56
VTFQGKFKK	7.04	6.49
VVYRGTTTY	6.93	7.38
YIFFASFYY	6.46	5.93
